# Test results as given in paper PMC3581551, “The N-Terminal β-Sheet of Peroxiredoxin 4 in the Large Yellow Croaker Pseudosciaena crocea Is Involved in Its Biological Functions” (PLoS ONE, 2013).
# Biological target: the molecule itself
# Experiment: crystal structure; reduced form, 1.90 Å, space group C2; five subunits in the asymmetric unit (two dimers and a monomer), decamer (pentamer of dimers) by crystal symmetry; crystals at 16°C, 10% PEG MME 5,000, 0.1 M HEPES-NaOH pH 8.0, with 14 mM β-mercaptoethanol and 10 mM DTT
protein,measurement,value
"Pseudosciaena crocea peroxiredoxin 4 (Prx4), mature protein without the 29-residue signal peptide (enzyme) EEAAHVKNSQCHNYAGGHVYPGEAFRVPVSDHSLHLSKAKISKPAPQWEGTAVINGEFKELKLSDYRGKYLVFFFYPLDFTFVCPTEIIAFSDRVHEFRAINTEVVACSVDSQFTHLAWIITPRKQGGLGPMKIPLLSDLTHQISKDYGVYLEDQGHTLRGLFIIDEKGVLRQITMNDLPVGRSVDETLRLVQAFQYTDKHGEVCPAGWKPGSDTIIPDPSGKLKYFDKMK",stoichiometry N,10
